Reference: PMC10691697, “A small molecule exerts selective antiviral activity by targeting the human cytomegalovirus nuclear egress complex” (PLOS Pathogens, 2023)

T1: Myc-tagged HCMV UL53 (residues 50-292) with glycine-serine linker (human cytomegalovirus (HCMV), UniProt P16794 50-292)
T1 construct: source: E. coli BL21 (DE3) RIPL, purified (glutathione-agarose, on-column PreScission digestion, size exclusion chromatography); not shown: GST, N-terminal, cleaved; Myc, N-terminal, kept
T1 sequence: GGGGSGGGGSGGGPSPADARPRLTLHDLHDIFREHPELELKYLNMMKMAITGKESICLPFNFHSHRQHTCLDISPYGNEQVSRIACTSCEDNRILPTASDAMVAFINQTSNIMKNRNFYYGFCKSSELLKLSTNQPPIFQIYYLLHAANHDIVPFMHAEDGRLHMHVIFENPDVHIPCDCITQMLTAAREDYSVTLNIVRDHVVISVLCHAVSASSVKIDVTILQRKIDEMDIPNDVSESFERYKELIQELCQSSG


Key:
Test in all cases: AlphaScreen or HTRF
[1] = target: His-tagged HCMV UL50 (residues 1-169) C79S (human cytomegalovirus (HCMV)) (UniProt P16791)
[2] = target: His-tagged HCMV UL50 (residues 1-169) C35N (human cytomegalovirus (HCMV)) (UniProt P16791)
[3] = target: His-tagged HCMV UL50 (residues 1-169) C54S (human cytomegalovirus (HCMV)) (UniProt P16791)
[4] = target: T1, Myc-tagged HCMV UL53 (residues 50-292) …; conditions: both partners purified

Molecule	Kd [1]	Kd [2]	Kd [3]	Kd [4]
Myc-tagged HCMV UL53 (residues 50-292) with glycine-serine linker (from UniProt P16794 50-292) (domain or fragment)	340 nM	150 nM	240 nM	
His-tagged HCMV UL50 (residues 1-169) (domain or fragment, also called His-UL50; source: E. coli BL21 (DE3) RIPL, purified (nickel Sepharose, size exclusion chromatography); not shown: His, N-terminal, kept) MEMNKVLHQDLVQATRRILKLGPSELRVTDAGLICKNPNYSVCDAMLKTDTVYCVEYLLSYWESRTDHVPCFIFKNTGCAVSLCCFVRAPVKLVSPARHVGEFNVLKVNESLIVTLKDIEEIKPSAYGVLTKCVVRKSNSASVFNIELIAFGPENEGEYENLLRELYAK				300 nM
